Measured values: patent publication US20260234247A1 (published 2026)
Positions count from the first letter of the chain named.

B1: LK-RB1-16.h2 (antibody, human IgG4, kappa, V domains shown)
VH: QVQLQESGPGLVKPSETLSLTCTVSGFSLISNAISWIRQPPGKGLEWLGVIWGDGNTIYHSALRSRLTISKDTSKNQVFLKLSSVTAADTAVYYCAKANWDGYYFDYWGQGTTVTVSS
VL: DIQMTQSPSTLSASVGDRVTITCHASQSVDFWLNWYQQKPGKAPKLLIYKASNLHTGVPSRFSGSGSGTEFTLTISSLQPDDFATYYCQQGQSYPLTFGQGTKLEIKR
notes: Humanized form of LK-RB1-16
B2: LK-RB1-16.h1 (antibody, human IgG4, kappa, V domains shown)
VH: B1 VH with L67V, V78F, F79S
VL: B1 VL
notes: Humanized form of LK-RB1-16
B3: LK-RB1-16.h3 (antibody, human IgG4, kappa, V domains shown)
VH: B1 VH
VL: B1 VL with Y49S
notes: Humanized form of LK-RB1-16
B4: LK-RB1-16 (antibody, human IgG4 S228P, kappa, V domains shown)
VH: QVQLKESGPGLVAPSQSLSITCTVSGFSLISNAISWVRQPPGKGLEWLGVIWGDGNTIYHSALRSRLTISKDNSKSQVFLKLNSLQIDDTATYYCAKANWDGYYFDYWGQGTTLTVSS
VL: DIQMNQSPSSLSASLGDTITITCHASQSVDFWLNWYQQKPGNIPKLLISKASNLHTGVPSRFSGSGSGTTFTLTISSLQPEDIATYYCQQGQSYPLTFGSGTKLEIKR
notes: Anti-LILRB1 antibody from mouse hybridoma; parental antibody of LK-RB1-16.h1 to h3
B5: LK-RB2-3 (antibody, human IgG4 S228P, kappa, V domains shown)
VH: QLQLQQSDAELVKPGASVKISCKVSGYSFTDHTIHWMKQRPEQGLEWIGYIYPRDGSTKENEKFTGKATLTADKSSSTAYMQLTSLTSEDSAVYFCTGSGFDYWGQGTSLTVSS
VL: DIKMTQSPSSMYASLGERVTITCKASQDIKSYLSWFQQKPGKSPKTLIYRANRLVDGVPSRFSGSGSGQDYSLTINSLEYEDMEIYYCLQYDEFPYTFGGGTKLEIKR
B6: LK-RB2-14 (antibody, human IgG4 S228P, kappa, V domains shown)
VH: QVQLKQSGPGLVQPSQSLSITCTVSGFSLTSYGVHWVRQSPGKGLEWLGVIWRGGSTDYNAAFMSRLSITKDNSKSQVFFKMNSLQADDTAIYYCAKNEGDSTVVAWYFDVWGTGTTVTVSS
VL: DIQMTQTTSSLSASLGDRVTISCSASQGISNYLNWFQQKPDGTVKLLIYYTSSLHSGVPSRFSGSGSGTDYSLTISNLEPEDIATYYCQQYSKLPLTFGAGTKLELKR
B7: LK-RB2-6 (antibody, human IgG4 S228P, kappa, V domains shown)
VH: QIQLVQSGPELKKPGETVKISCKASGYTFTTYGMSWVKQAPGKGLEWMGWINIYSGVPTYADDFKGRFAFSLETSASTAYLQINNLKNEDTATYFCARRGDYDSFYFDYWGQGTTLTVSS
VL: DIVMSQSPSSLAVSVGEKVTVSCKSSQSLLYSYNQKNYLAWYQQKPGQSPKLLIYWSSTRESGVPDRFTGSGSGTDFTLTISSVKAEDLAVYYCQQCYNYPYTFGGGTKLEIKR
B8: LK-RB2-12 (antibody, human IgG4 S228P, kappa, V domains shown)
VH: B7 VH with A40T, E46K, A69V, T74I, Y80H, G100K, D103S, S104G, F105H, Y106C
VL: DIVLTQSPASLAVSPGQRATISCRASESVDTYGISFMHWYQQKPGQPPKLLIYRASNLESGIPARFSGSGSRTDFTLTINPVETDDVAIYYCQQSKKDPYTFGGGTKLEIKR
B9: LK-RB2-15 (antibody, human IgG4 S228P, kappa, V domains shown)
VH: B7 VH with E46K, I53V, T74I, N88D, G100K, D103S, S104G, F105H, Y106C
VL: B8 VL with P15L, I21F, I89T, D98E
B10: LK-RB2-1 (antibody, human IgG4 S228P, kappa, V domains shown)
VH: B7 VH with E46K, I53T, P58S, G100Y, S104G, F105Y, Y106A, F107M, T115S, L116V
VL: B7 VL with V21M, Y31F, Y33S, S57A, S71R, A86T, C97Y, Y98D, N99T, Y102P
B11: LK-RB2-13 (antibody, human IgG4 S228P, kappa, V domains shown)
VH: QIQLVQSGPELKKPGETVKISCKASGYTFTTYGMSWVKQAPGKGLQWMGWINTYSGVPTFADDFKGRFAFSLDTSASTAYLQINNLKNEDTATYFCARRINWDGYAMDYWGQGTSVTVSS
VL: B7 VL with I2S, V21M, Y33G, N37S, S57A, C97Y, N99S
B12: LK-RB2-17 (antibody, human IgG4 S228P, kappa, V domains shown)
VH: B11 VH with T31N, K65R, N85S, T93A
VL: B7 VL with I2S, V21L, Y33G, N37S, S57A, T59S, C97Y, N99S, Y100F
B13: LK-RB2-19 (antibody, human IgG4 S228P, kappa, V domains shown)
VH: QVQLQQPGAELVKPGASVKLSCKASGYTFTSYWMHWVKQRPGQGLEWIGMIHPNSGGTNYNEKFKSKATLTVDKSSSTAYMQFSSLTSEDSAVYYCARCTVVALYYALDYWGQGTSVTVSS
VL: QIVLSQSPAILSASPGEKVTMTCRATSRVSYIHWFQQKPGSSPKPWIYVTSNLASGVPARFSGSGSGTSYSLTISKLEAEDVATYYCQQWSTNPLTFGAGTKLELKR
B14: LK-RB2-18 (antibody, human IgG4 S228P, kappa, V domains shown)
VH: EVQLQQSGPELVKPGTSVKISCKASGYTFTDYYMNWVKQSHGKSLEWIGDINPNNGGTSYNQKFKGKATLTVDKSSSTAYMELRSLTSEDSAVFYCARSGTTVVGTYWYFDVWGTGTTVTVSS
VL: DIQMTQSPASLSVSVGETVTITCRASENIYSNLAWYQQKQGKSPQLLVYGATNLADGVPSRFSGSGSGTQYSLKINSLQSEDFGSYYCQHFWDTPFTFGSGTKLEIKR
B15: LK-RB2-9 (antibody, human IgG4 S228P, kappa, V domains shown)
VH: DVQLQESGPGLVKPSQSLSLTCSVTGYSITSGYYWNWIRQFPGNKLEWMGYIGYDGNNNYNPSLKNRISITRDTSKNQFFLKLNSLTTEDTATYYCAREGSTMVTSWFAYWGQGTLVTVSA
VL: B14 VL with S65R, G68D, F96Y, S100G
B16: LK-RB2-2 (antibody, human IgG4 S228P, kappa, V domains shown)
VH: DVKLEESGEGLVKPGGSLKLSCAASGFTFSSYAMSWVRQTPEKRLEWVAYISSGGDYFHYADTVKGRFTISRDNARNTLYLQMSSLKSEDTAMYYCTREGAHYDSSYLAWFAHWGQGTLVTVSA
VL: B14 VL with K39R, G50A, H90Q, T94N, F96L, S100A, I106L
B17: LK-RB2-7 (antibody, human IgG4 S228P, kappa, V domains shown)
VH: B16 VH with E5V, K43M, Y57H, H59Y, N77S, H102S, S106N, Y107F, H113Y
VL: B14 VL with Q40E, H90N, T94I, F96L, S100A, I106L
B18: LK-RB2-4 (antibody, human IgG4 S228P, kappa, V domains shown)
VH: EVQLVESGGDLVKPGGSLKLSCAASGFTFSNYGMSWVRQTPDKRLEWVATISSGGSYTFYPDSVKGRFTISRDNAKNTLYLQMSSLKSEDTALYYCARDYYYGKTIEGYFDYWGQGTTLTVSS
VL: DIQMTQTTSSLSASLGDRVTISCRANQDISNYLNWYQQKPDGTVKLLIYYTSRLHSGVPSRFSGSGSGTDYSLTISDLEQEDIATYFCQQGNTLPWTFGGGTKLEIKR
B19: LK-RB2-41 (antibody, human IgG4 S228P, kappa, V domains shown)
VH: EVQLQLSGPELVKPGASVKMSCKASGYTFTDYNMHWVKQSHGKSLEWIGYINPNNGGTTYNQKFKGKATLTVNKSSSTAYMELRSLTSEDSAVYYCARAPYYGSSYLLAYWGQGTLVTVSA
VL: DIVMTQSHKFMSTSVGDRVSITCKASQDVSTAVAWYQQKPGQSPKLLIYSASYRYTGVPDRFTGSGSGTDFTFTISSVQAEDLAIYYCQQHYSIPWTFGGGTKLEIKR
B20: J19.h1 (antibody, human IgG4 S228P, kappa, V domains shown)
VH: QITLKESGPTLVKPTQTLTLTCTFSGFSLNTYAMGVSWIRQPPGKALEWLASIWWNGNKYNNPSLKSRLTVTKDTSKNQVVLTMTNMDPVDTATYYCAHSRIIRFTDYVMDAWGQGTLVTVSS
VL: DIQMTQSPSSLSTSVGDRVTITCRASEDIYNDLAWYQQKPGKAPKLLIYNANSLHTGVASRFSGSGSGTDFTFTISSLQPEDVATYFCQQYYDYPLTFGQGTKLEIKR
B21: LK-RB2-45 (antibody, human IgG4 S228P, kappa, V domains shown)
VH: B7 VH with A40T, E46Q, I53V, T74A, T93S, S104G, F105H
VL: DIVMTQSPATLSVTPGDRVSLSCRASQSISDYLNWYQQKSHESPRLLIKYVSQSISGIPSRFSGSGSGSDFTLSINSVEPEDIGVYYCQNGHNFPLTFGGGTKLELKR
B22: LK-RB2-40 (antibody, human IgG4 S228P, kappa, V domains shown)
VH: DVQLQESGPGLVKPSQSLSLTCSVTGYSITSGYYWNWIRQFPGNKLEWMAYISYDGSNNYNPSLKNRISITRDTSKNQFFLKLNSVTTEDTATYYCAREEGTAQATLGYFDYWGQGTTLTVSS
VL: B14 VL with G50A

Biological target: T1, human LILRB1-his (human, UniProt Q8NHL6 24-458, limits assumed)
T1 construct: Analyte of the Biacore run; not shown: His tag
Experiment: SPR (Biacore 8K), antibody captured via Fc, LILRB1-his as analyte, 1:1 model

T1 sequence (Q8NHL6 24-458 limits assumed): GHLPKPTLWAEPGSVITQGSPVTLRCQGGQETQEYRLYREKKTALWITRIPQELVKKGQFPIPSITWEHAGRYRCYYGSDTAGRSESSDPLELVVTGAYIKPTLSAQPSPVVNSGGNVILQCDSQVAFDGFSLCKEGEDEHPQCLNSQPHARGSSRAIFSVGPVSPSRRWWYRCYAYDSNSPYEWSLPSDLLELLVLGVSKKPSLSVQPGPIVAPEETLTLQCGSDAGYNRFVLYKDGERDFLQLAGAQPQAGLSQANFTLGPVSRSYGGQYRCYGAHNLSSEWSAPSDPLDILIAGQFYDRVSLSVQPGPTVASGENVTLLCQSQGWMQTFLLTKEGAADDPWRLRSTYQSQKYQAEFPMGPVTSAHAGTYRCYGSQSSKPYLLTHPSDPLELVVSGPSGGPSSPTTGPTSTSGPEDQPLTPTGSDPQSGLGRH

Row | Kd [pM] | koff [s⁻¹] | kon [M⁻¹ s⁻¹] | Binder
1 | 235 | 0.000112 | 476000 | B1
2 | 507 | 0.0002 | 394000 | B2
3 | 240 | 0.000107 | 444000 | B3
4 | 194 | 0.000108 | 556000 | B4

Biological target: T2, human LILRB2 (human, UniProt Q8N423 22-460, limits assumed)
T2 construct: also called hLILRB2
Experiment: Octet off-rate ranking;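 further: antibody dissociation rate constants against cynomolgus LILRB2 plus human LILRB1, LILRB2, LILRA1 and LILRA2, measured on an Octet instrument to rank binding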
From the text: Binding affinity of anti-LILRB1 and anti-LILRB2 antibodies against human LILRB1, LILRB2, LILRA1, LILRA2 and cynomolgus LILRB2 was ranked by measuring dissociation rate constant (Kdis) using the Octet system.

T2 sequence (Q8N423 22-460 limits assumed): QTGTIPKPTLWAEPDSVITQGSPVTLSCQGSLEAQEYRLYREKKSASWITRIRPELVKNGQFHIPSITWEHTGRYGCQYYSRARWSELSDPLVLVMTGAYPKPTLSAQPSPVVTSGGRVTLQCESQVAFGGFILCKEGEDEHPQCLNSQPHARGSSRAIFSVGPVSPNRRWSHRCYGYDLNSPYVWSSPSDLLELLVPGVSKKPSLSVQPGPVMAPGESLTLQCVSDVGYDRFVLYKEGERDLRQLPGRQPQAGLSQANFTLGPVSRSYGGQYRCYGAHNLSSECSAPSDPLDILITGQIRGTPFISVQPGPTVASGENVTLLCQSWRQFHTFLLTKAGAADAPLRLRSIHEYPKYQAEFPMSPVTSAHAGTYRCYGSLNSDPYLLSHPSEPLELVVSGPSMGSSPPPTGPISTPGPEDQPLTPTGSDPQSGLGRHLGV

Row | koff [s⁻¹] | Binder
5 | 3.91e-05 | B5
6 | 0.000302 | B6
7 | 0.00167 | B7
8 | 0.000662 | B8
9 | 6.22e-05 | B9
10 | 0.00341 | B10
11 | 0.00304 | B11
12 | 0.000926 | B12
13 | 0.002 | B13
14 | 0.000174 | B14
15 | 0.00135 | B15
16 | 0.000757 | B16
17 | 0.0014 | B17
18 | 0.000157 | B18

Biological target: T3, human LILRB2 expressed on CHOK1 cells (CHOK1-hLILRB2) (human, UniProt Q8N423 22-597)
T3 construct: whole, on cells; also called CHOK1-LILRB2
Experiment: FACS binding to CHOK1-hLILRB2 cells

T3 sequence (Q8N423 22-597): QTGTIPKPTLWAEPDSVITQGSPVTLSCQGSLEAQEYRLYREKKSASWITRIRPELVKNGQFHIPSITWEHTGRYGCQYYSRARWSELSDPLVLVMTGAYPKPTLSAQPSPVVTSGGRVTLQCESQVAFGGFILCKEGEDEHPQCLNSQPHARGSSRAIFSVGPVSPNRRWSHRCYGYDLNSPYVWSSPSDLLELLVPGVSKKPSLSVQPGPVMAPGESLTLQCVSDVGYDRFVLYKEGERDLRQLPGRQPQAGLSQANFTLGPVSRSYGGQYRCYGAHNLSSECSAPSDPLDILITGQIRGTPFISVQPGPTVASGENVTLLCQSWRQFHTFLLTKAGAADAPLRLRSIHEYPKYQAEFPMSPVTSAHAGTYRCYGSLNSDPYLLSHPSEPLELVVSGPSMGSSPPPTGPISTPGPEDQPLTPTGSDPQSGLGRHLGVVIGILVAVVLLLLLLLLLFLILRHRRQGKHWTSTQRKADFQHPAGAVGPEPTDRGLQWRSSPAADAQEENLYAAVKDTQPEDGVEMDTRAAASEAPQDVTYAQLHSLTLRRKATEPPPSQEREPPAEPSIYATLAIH

Row | EC50 [pM] | Binder
19 | 370 | B19
20 | 150 | B20
21 | 300 | B21
22 | 530 | B22

Biological target: T4, human LILRB1 expressed on CHOK1 cells (CHOK1-hLILRB1) (human, UniProt Q8NHL6 24-650)
T4 construct: whole, on cells; also called CHOK1-LILRB1
Experiment: FACS binding to CHOK1-hLILRB1 cells

T4 sequence (Q8NHL6 24-650): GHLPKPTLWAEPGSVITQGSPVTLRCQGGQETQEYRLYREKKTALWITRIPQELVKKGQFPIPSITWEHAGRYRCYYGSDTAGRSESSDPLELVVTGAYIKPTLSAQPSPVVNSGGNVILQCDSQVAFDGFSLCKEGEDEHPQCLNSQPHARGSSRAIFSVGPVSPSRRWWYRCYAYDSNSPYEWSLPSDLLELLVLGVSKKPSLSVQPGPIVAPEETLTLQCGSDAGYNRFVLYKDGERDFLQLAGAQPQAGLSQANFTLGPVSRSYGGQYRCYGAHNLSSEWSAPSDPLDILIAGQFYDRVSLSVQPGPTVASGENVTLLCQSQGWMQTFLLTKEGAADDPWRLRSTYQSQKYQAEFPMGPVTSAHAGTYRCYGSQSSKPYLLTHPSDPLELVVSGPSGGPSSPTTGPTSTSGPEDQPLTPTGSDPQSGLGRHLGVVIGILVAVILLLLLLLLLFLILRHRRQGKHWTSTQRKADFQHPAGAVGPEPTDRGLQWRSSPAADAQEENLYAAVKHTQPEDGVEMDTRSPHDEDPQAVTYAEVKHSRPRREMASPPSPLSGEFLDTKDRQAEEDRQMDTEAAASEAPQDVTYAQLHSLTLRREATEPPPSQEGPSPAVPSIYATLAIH

Row | binding result | EC50 [pM] | Binder
23 | no binding | – | B19
24 | no binding | – | B20
25 | – | 1480 | B21
26 | no binding | – | B22

Biological target: T3, human LILRB2 expressed on CHOK1 cells …
Experiment: cell based RBA, flow cytometry: blocking of HLA-G binding to CHOK1-hLILRB2 cells

Row | EC50 [pM] | Top Inhibition [%] | Binder
27 | 157 | 80.1 | B19
28 | 88.9 | 68.7 | B20
29 | 67.2 | 81.6 | B21
30 | 444 | 79.4 | B22
